Experimental findings from patent publication US12123876B2, “Antibody binding to HEG1 and use of the antibody for detection and treatment of mesothelioma” (Kanagawa Prefectural Hospital Organization, priority 2016, dated 2024) are described below.

“Also recorded” adds a separate entry of the source.

The subject of this test is HEG1 protein (purified from ACC-MESO4 or recombinant soluble HEG1). The test is described as follows: Western blot / dot blot reactivity of antibodies with HEG1 protein. In kind it is binding, human. As for the experimental part: A massive amount of ACC-MESO4 was cultured, and purification of an antigen from the cell lysate was performed. Cells from 240 10-cm dishes were solubilized with 50 mM Tris buffer (pH 8.0) containing 1% TRITON™ X-100 (detergent), 1% CHAPS, 1 mM EDTA, 50 mM NaCl, and protease inhibitor (Complete, Roche Life Science), and then centrifuged. The resulting supernatant was dialyzed with 20 mM acetate buffer (pH 5.0) at 4° C. for 18 hours to afford an acidic precipitate. The precipitate was extracted with 20 mM Tris buffer (pH 7.2) containing 0.1% TWEEN® 20 (polyethylene glycol sorbitan monolaurate, polyoxyethylenesorbitan monolaurate) and 150 mM NaCl and centrifuged, and the resulting supernatant was concentrated by using an Amicon Ultra-15, 100 kDa (Merck Millipore) and subjected to solution exchange with 20 mM Tris buffer (pH 8.0) containing 6 M guanidine hydrochloride. To the concentrated solution, tris(2-carboxyethyl)phosphine hydrochloride with a final concentration of 10 mM was added, and the resultant was heated at 60° C. for 30 minutes, and iodoacetamide with a final concentration of 40 mM was then added thereto, and reacted at room temperature for 3 hours. The reaction solution was subjected to gel filtration chromatography (SUPEROSE® 6 INCREASE (prepacked column) 10/300 GL (GE Healthcare)) in 20 mM Tris buffer (pH 8.0) containing 6 M guanidine hydrochloride and 0.05% TWEEN® 20 (polyethylene glycol sorbitan monolaurate, polyoxyethylenesorbitan monolaurate), and fractions positive for dot blot were collected. The sample was dialyzed with 25 mM phosphate buffer (pH 7.0) containing 4 M urea and 0.05% TWEEN® 20 (polyethylene glycol sorbitan monolaurate, polyoxyethylenesorbitan monolaurate) at room temperature overnight, and applied to a Mono Q 5/50 GL (GE Healthcare). The column was washed with 25 mM phosphate buffer (pH 7.0) containing 4 M urea and 0.05% TWEEN® 20 (polyethylene glycol sorbitan monolaurate, polyoxyethylenesorbitan monolaurate), and thereafter elution was performed with an NaCl salt concentration gradient of 0 to 1 M. Fractions strongly positive for dot blot were collected, and dialyzed with 25 mM phosphate buffer (pH 7.2) containing 150 mM NaCl and 0.05% TWEEN® 20 (polyethylene glycol sorbitan monolaurate, polyoxyethylenesorbitan monolaurate) at room temperature overnight, and applied to 1 mL of WGA-SEPHAROSE® (wheat germ agglutinin-crosslinked, beaded-form of agarose) (J-OIL MILLS, Inc.). After washing with buffer, elution was performed with 25 mM phosphate buffer (pH 7.2) containing 0.2 M N-acetylglucosamine, 150 mM NaCl, and 0.05% TWEEN® 20 (polyethylene glycol sorbitan monolaurate, polyoxyethylenesorbitan monolaurate), and the eluent was concentrated with a Centricon (YM-30) (Millipore). Gel filtration chromatography (SUPEROSE® 6 INCREASE (prepacked column) 10/300 GL (GE Healthcare)) was performed in 25 mM phosphate buffer (pH 7.2) containing 3 M GdnHCI and 0.5% CHAPS, and fractions strongly positive for dot blot were dialyzed with 20 mM NH4HCO3 containing 0.5% CHAPS at room temperature overnight to afford a purified antigen.
The dot blot was performed as follows. A PVDF membrane (Immobilon-P, Merck Millipore) was soaked in methanol, and then washed and impregnated with pure water. The hydrophilized PVDF membrane was placed on a filter paper containing water to avoid air inclusion, removed of excessive moisture, and soaked with 1 to 5 μL of the sample in dots fed by a micropipette. After the membrane was dried at room temperature overnight, the membrane was hydrophilized again with methanol and pure water, and blocked with 20 mM Tris buffer (pH 7.4) containing 5% skim milk, 0.1% TWEEN® 20 (polyethylene glycol sorbitan monolaurate, polyoxyethylenesorbitan monolaurate), and 150 mM NaCl (blocking buffer) at room temperature for 1 hour. […]

B1: SKM9-2 antibody: mouse monoclonal IgG1 kappa antibody binding glycosylated HEG1; heavy chain SEQ ID NO: 2, light chain SEQ ID NO: 4 (antibody, listed as Mus musculus)
heavy: MGWSSIILFLVATTTGVHSQVQLQQPGAELVRPGASVKLSCKASGFSFTTYWITWVKQRPGQGLEWIGMIHPSDSETRLSQTFKDKATLTVDKSSNTAYMQFSSPTSEDSAVYYCVRDFDVWGAGTTVTVSSAKTTPPSVYPLAPGSAAQTNSMVTLGCLVKGYFPEPVTVTWNSGSLSSGVHTFPAVLQSDLYTLSSSVTVPSSTWPSETVTCNVAHPASSTKVDKKIVPRDCGCKPCICTVPEVSSVFIFPPKPKDVLTITLTPKVTCVVVDISKDDPEVQFSWFVDDVEVHTAQTQPREEQFNSTFRSVSELPIMHQDWLNGKEFKCRVNSAAFPAPIEKTISKTKGRPKAPQVYTIPPPKEQMAKDKVSLTCMITDFFPEDITVEWQWNGQPAENYKNTQPIMDTDGSYFVYSKLNVQKSNWEAGNTFTCSVLHEGLHNHHTEKSLSHSPGK
light: MKLPVRLLVLMFWIPASISDVLMTQTPLSLPVSLGDQASISCRSSQNIVHNNGNTYLGWYLQKPGQSPKLLIFKVSNRFSGVPDRFSGSGSGTDFTLKISRVEAEDLGVYYCFQGSHIPRTFGGGTRLEIKRADAAPTVSIFPPSSEQLTSGGASVVCFLNNFYPKDINVKWKIDGSERQNGVLNSWTDQDSKDSTYSMSSTLTLTKDEYERHNSYTCEATHKTSTSPIVKSFNRNEC
As for B1, the “Recognition of purified antigen band at approximately 400 kDa” value (Western blotting, antigen purified from ACC-MESO4) is recorded as “recognized”. For the same molecule, under “dot blot”, the “Reactivity with antigen after N-glycanase (PNGase F) treatment” value is recorded as “did not cause the antibody to lose the reactivity” and the “Reactivity with antigen after Proteinase K treatment” value was “caused the antibody to lose the reactivity”. For the same molecule, the “Reactivity with antigen treated with neuraminidase” value (dot blot, HEG1 protein purified from ACC-MESO4, neuraminidase treatment) is reported as “did not bind; also recorded: weakened”.
